Sequences and labels used below:
B1: CD8B575 (antibody, human IgG1, kappa, V domains shown)
VH: QVQLQQSGGGLVQPGGSLKLSCAASGFTFSNYYMSWARQTPEKRLEWVAYISNDGDATYYPDSVKGRFTISRDNAKNTLYLQMSSLKSEDTAMYYCTREDYYSDYWFASWGQGTTVTVSS
VL: DIVMTQSQKFMSTTIEDRVSITCKASQNVGTAVAWYQQKPGQSPKLLIYSTSNRYTGVPDRFTGSGSGTDFTLTISNIQSEDLADYFCQQYSSYPLTFGGGTKLEIKR
notes: Mouse variable regions on human IgG1 / human kappa constant regions, made in CHO cells; also called AF647-CD8B575
B2: CD8B613 (antibody, human IgG1, kappa)
heavy: not shown
light: DVQMIQSPLSLPVSLGDQASISCRSSQNIVHSNGNTYLEWYLQKPGQSPKLLIYRVSKRFSGVPDRFSGSGSGTDFTLKITRVEAEDLGVYYCFQGSHVPWTFGGGTKLEIKRTVAAPSVFIFPPSDEQLKSGTASVVCLLNNFYPREAKVQWKVDNALQSGNSQESVTEQDSKDSTYSLSSTLTLSKADYEKHKVYACEVTHQGLSSPVTKSFNRGEC
notes: Mouse variable regions on human IgG1 / human kappa constant regions
B3: CD8B622 (antibody, human IgG1, kappa)
heavy: not shown
light: B2 light with V2I, Q3V, I5T, S7T
notes: Mouse variable regions on human IgG1 / human kappa constant regions; also called CD8B622.001
B4: CD8B623 (antibody, human IgG1, kappa)
heavy: not shown
light: B2 light with Q3V, I5T, S7T
notes: as for B2
B5: CD8B617 (antibody, human IgG1, kappa)
heavy: not shown
light: DIQMTQSPLTLSVTIGQPASISCKSSQSLLDSDGETYLNWLLQRPGQSPKRLIYLVSKLDSGVPDRFTGSGSGTDFTLKISRVEAEDLGVYYCWQGTHFPLTFGGGTKLEIKRTVAAPSVFIFPPSDEQLKSGTASVVCLLNNFYPREAKVQWKVDNALQSGNSQESVTEQDSKDSTYSLSSTLTLSKADYEKHKVYACEVTHQGLSSPVTKSFNRGEC
notes: as for B2
B6: CD8B611 (antibody, human IgG1, kappa, V domains shown)
VH: EVQLQQSGAELVRPGASVNLSCTASGFNFKDDYMHWVKQRPEQGLEWIGWIDPENGDAAYASKFQGKATITADTSSNTAYLQLSSLTSEDTAVYYCITIFRSYWGQGTTLTVSS
VL: not shown
notes: as for B2
B7: CD8B607 (antibody, human IgG1, kappa)
heavy: not shown
light: B5 light with S7T
notes: as for B2

Substitutions are numbered along the chain they refer to.

T2 sequence (P01732 138-182): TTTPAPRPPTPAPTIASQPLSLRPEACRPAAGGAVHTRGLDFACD

One assay deals with T1, CAR with CD8α hinge as the spacer, expressed on Jurkat CAR-T cells.
T1 construct: domain: CD8α hinge; also called CD8α hinge expressed on the Jurkat CAR-T cells
T1 sequence (P01732 138-182): as above
The experiment in a line: flow cytometry (iQue) on Jurkat CAR-T cells, A647 anti-human IgG Fc detection. The method, then:
mAbs were 1:3 serially diluted ranging from 100 nM to 1.7 pM and were incubated with cell mixture containing Jurkat CAR-T cells (unstained), Jurkat cells (CTV dye stained) and Sup-T1 cells (CSFE dye stained) in assay media (RPMI 1640+10% HI FBS+Pen/strep) for 1 hr at 37° C. […] Cells were then washed and analyzed by iQue screener (Intellicyt®). ForeCyt software was used for data analysis. The ratio of geomean of AF647 fluorescent signal from sample over the isotype control antibody (Signal) was used for the dose-dependent plot (FIGS. 2A-2F).
With B1, a half-maximal effect (EC50) was put at 0.0326 µM.
Same read-out and setting: the result for B2 reads 0.0019 µM.
On the same count and under the same terms, the result for B3 reads 0.037 µM; that for B4, 0.0078 µM.
Same read-out and setting: the result for B5 reads 0.0237 µM.
Take B6: the EC50 – broadly, the concentration that produces a half-maximal response – is 0.0216 µM.
On the same count and under the same terms, the result for B7 reads 0.0247 µM.

The next assay has as its target T2, soluble CAR extracellular domain (ECD) containing scFv and CD8α hinge (UniProt P01732 138-182, biotinylated).
T2 construct: domain: CD8α hinge; also called soluble CAR ECD; CAR ECD
The experiment in a line: BLI (OctetRed384), GC5W48-Btn (biotinylated CAR ECD) loaded on streptavidin tip, mAb in solution; first of two table rows. The protocol:
(§1) To determine the binding affinity and kinetics of mAbs to CD8α hinge, soluble CAR extracellular domains (ECD) containing scFv and CD8α hinge was generated for Bio-layer interferometry (BLI) analysis using OctetRed384 (Sartorius). The CAR ECD was biotinylated and loaded to streptavidin sensor tip. Then mAbs were associated to the sensor and followed by disassociation in the assay buffer. Data was analyzed by Octet software (Sartorius).
With B1, the affinity, expressed as Kd, was 0.00201 µM and the kon (commonly the second-order rate constant of association) was 89100 M⁻¹ s⁻¹.

The target of another assay is T3, human CD8α on primary CD8+ T cells (human, UniProt P01732 22-235).
T3 construct: Endogenous CD8 on T cells from PBMC; also called CD8+ primary T cells; human primary CD8+ cells
T3 sequence (P01732 22-235): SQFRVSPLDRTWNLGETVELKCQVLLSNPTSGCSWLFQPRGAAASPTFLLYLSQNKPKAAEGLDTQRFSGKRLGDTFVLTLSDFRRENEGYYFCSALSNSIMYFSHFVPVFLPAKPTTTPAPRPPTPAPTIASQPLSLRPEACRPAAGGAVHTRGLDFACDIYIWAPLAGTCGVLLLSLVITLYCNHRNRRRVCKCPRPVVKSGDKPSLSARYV
Kind of assay: flow cytometry on PBMC, 2 µg/mL mAb, positive cells among EMRA CD8 T cells, Donor 2. The protocol: (§2) Frozen PBMCs were thawed and resuspended in FACS buffer (PBS+2% FBS). Cells were then incubated with Fc block for 15 min at 4 C prior to incubation with 2 μg/mL of each CD8α hinge binders at room temperature for 45 min. […] After staining, cells were washed with FACS buffer twice and resuspended in 100 μl PBS containing DAPI for acquisition. Cells were first gated on FSC/SSC, followed by live cell gating (DAPI negative cells) followed by singlet gating. CD3 T cells were identified using FSC versus CD3 dot plot. Within the CD3 T cells, CD4 and CD8 T cells were gated. Naïve, Effector, EM and CM cells were identified within the CD8 T cells using CD45RA and CD27 dot plot. Within each of the cell types, the secondary only control was used to set the gates to identify the positive stained population. The percentage of positive cells in CD8+ T cell population with binding to CD8α hinge binders were quantified and summarized in Table 13.
A general note: A flow cytometer gives signals particle by particle.
Take B1: the “Binding+ in EMRA (%)” value was 92.8%.
For the molecule B2, the “Binding+ in EMRA (%)” value worked out at 8.76%.
On to B3, for which the “Binding+ in EMRA (%)” value was determined as 4.25%.
The same measure, in the same setting: in the case of B4 it was 5.38%; in that of B5, 97.3%; in that of B6, 97.8%.
The same measure, in the same setting: in the case of B7 it was 97.1%.

The target of the next assay is T2, soluble CAR extracellular domain (ECD) …. Kind of assay: BLI (OctetRed384), GC5W48-Btn (biotinylated CAR ECD) loaded on streptavidin tip, mAb in solution; second of two table rows. The protocol: as §1
As for B1, the Kd (usually the free concentration of one partner at which half of the binding sites on the other are occupied at equilibrium, for simple one-to-one binding) was 0.00165 µM and the kon turned out to be 46800 M⁻¹ s⁻¹.

A further assay shares this target. The experiment in a line: BLI (OctetRed384), biotinylated CAR ECD on streptavidin tips; the cell stands under the head 'kd (1/s)' (heads shifted). The protocol: as §1
As for B1, the kon came to 68000 M⁻¹ s⁻¹.

The next assay shares this target. The experiment in a line: BLI (OctetRed384), GC5W48-Btn loaded on streptavidin tip; row 'average'; the sheet puts this number under 'kon (1/Ms)', Table 14 of the text under 'kd (1/s)'. The method, then:
as §1
Molecule B1 displayed a kon of 68000 M⁻¹ s⁻¹.

A further assay shares this target. Kind of assay: BLI (OctetRed384), biotinylated CAR ECD on streptavidin tips; the cell stands under the head 'KD (M)' (heads shifted). The protocol:
as §1
As to B1, the koff (in general, the first-order rate constant of dissociation) stood at 0.000128 s⁻¹.

In another assay the target is T3, human CD8α on primary CD8+ T cells. The experiment in a line: flow cytometry on PBMC, 2 µg/mL mAb, positive cells among EMRA CD8 T cells, Donor 1. The protocol:
as §2
Turning to B1, the “Binding+ in EMRA (%)” value was 81.3%.
On the same count and under the same terms, in the case of B2 it was 72%; in that of B3, 60.6%; in that of B4, 63.3%.
Same read-out and setting: in the case of B5 it was 90.3%; in that of B6, 91%.
As for B7, the “Binding+ in EMRA (%)” value was 87.9%.

For another assay the target is unchanged. Kind of assay: flow cytometry on PBMC, 2 µg/mL mAb, positive cells among EM CD8 T cells, Donor 1. The method, then: as §2
As to B1, the “Binding+ in EM (%)” value was found to be 69.5%.
Regarding B2, the “Binding+ in EM (%)” value is 70.5%.
With B3, the “Binding+ in EM (%)” value was determined as 50.4%.
Regarding B4, the “Binding+ in EM (%)” value was found to be 56.5%.
Same read-out and setting: the result for B5 reads 86.2%; that for B6, 88.5%; that for B7, 82.8%.

The next assay deals with T2, soluble CAR extracellular domain (ECD) …. Kind of assay: BLI (OctetRed384), GC5W48-Btn loaded on streptavidin tip; row 'average'; the sheet puts this number under 'kdis (1/s)', Table 14 of the text under 'KD (M)'. The protocol:
as §1
In turn, B1 displayed a koff of 0.000128 s⁻¹.

For another assay the target is unchanged. The experiment in a line: BLI (OctetRed384), GC5W48-Btn (biotinylated CAR ECD) loaded on streptavidin tip, mAb in solution; first of two table rows; column head 'kdis (1/s)'. The protocol:
as §1
B1: the off-rate (koff) came to 0.000179 s⁻¹.

Another assay addresses T3, human CD8α on primary CD8+ T cells. The experiment in a line: flow cytometry on PBMC, 2 µg/mL mAb, positive cells among EM CD8 T cells, Donor 2. The method, then:
as §2
For the molecule B1, the “Binding+ in EM (%)” value was 77.9%.
The same measure, in the same setting: in the case of B2 it was 75.9%.
On the same count and under the same terms, the result for B3 reads 50.3%; that for B4, 60.6%.
Still for that read-out and setting: the result for B5 reads 89.1%; that for B6, 91.5%.
Turning to B7, the “Binding+ in EM (%)” value came out at 87.4%.

A further assay has as its target T2, soluble CAR extracellular domain (ECD) …. Kind of assay: BLI (OctetRed384), GC5W48-Btn (biotinylated CAR ECD) loaded on streptavidin tip, mAb in solution; second of two table rows; column head 'kdis (1/s)'. The method, then: as §1
B1 registered a koff of 7.72e-05 s⁻¹.

The target is the same in the next assay. Kind of assay: BLI (OctetRed384), biotinylated CAR ECD on streptavidin tips; the cell stands under the head 'ka (1/Ms)' but the text gives 1.83 nM as the affinity (heads shifted). The protocol: as §1
As for B1, the Kd was determined as 0.00183 µM.

The target of the next assay is T3, human CD8α on primary CD8+ T cells. Kind of assay: flow cytometry on PBMC, 2 µg/mL mAb, positive cells among CD8+ T cells, Donor 2. The method, then: as §2
Regarding B1, the “Binding in CD8+ cells (%)” value was determined as 96.4%.
Same read-out and setting: the result for B2 reads 28.1%; that for B3, 16.7%; that for B4, 19.5%.
Same read-out and setting: the result for B5 reads 97.8%; that for B6, 98.2%.
For B7, the “Binding in CD8+ cells (%)” value came out at 97.7%.

The target is the same in a further assay. Kind of assay: flow cytometry on PBMC, 2 µg/mL mAb, positive cells among CD8+ T cells, Donor 1. The method, then:
as §2
In the case of B1, the “Binding in CD8+ cells (%)” value turned out to be 84.4%.
As to B2, the “Binding in CD8+ cells (%)” value worked out at 73.8%.
Still for that read-out and setting: in the case of B3 it was 63.1%.
Still for that read-out and setting: in the case of B4 it was 65.3%.
For B5, the “Binding in CD8+ cells (%)” value was found to be 88.5%.
On the same count and under the same terms, the result for B6 reads 88.8%.
Still for that read-out and setting: in the case of B7 it was 87.5%.

Values taken from patent US20230174651A1 (Janssen / Centocor, published 2023).
